Test results from the supplement of paper PMC6755084.

System: F1*sub RNA substrate (template-directed ligation)
Test: fraction ligated after 30 min (ligated reads / total reads); higher = more ligase activity; sequences stand for … in GAGACCGCAACTGAAAAGTTGT…AGTTCTGCACGTAGAAGCAAAAGGC
Conditions: 42 °C
How it was run: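 Oligo-pool templates of ligase ribozyme variants were PCR-amplified, T7-transcribed and gel-purified. Ligated and unligated bands were gel-separated, reverse transcribed with barcoded primers, and MiSeq-sequenced; core bases were filtered at quality ≥20. Fraction ligated per variant was ligated reads over total reads.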

Sequence | fraction ligated
TATCACTTGTGTAAGACCTTTGGATGGGTTA [3d1777] | 0.81
TATCCTTGTCGTAAGACATTTGGATGGGTTG [3d1096] | 0.772
TATCCTTGTCGTAAGACACTTTGATGGGTTA [3d1108] | 0.644
TTCACTTGTCGTAAGACCTTTGATGGGTTGA [3d471] | 0.164
TATCACTTGTCGAGACCTTTGGATGGGTTGA [3d1906] | 0.788
TATCACTTGTCGAGACACTTTGGATGGTTGA [3d1912] | 0.166
TATCACTTGTCGTAGACACTTTGGATGGGTTA [2d232] | 0.825
TATATTGTCGTAAGAACTTTGGATGGGTTGA [3d767] | 0.468
TACACTTGTCGTAGACACTTTGGAGGGTTGA [3d668] | 0.146
TATCACTTGTCTAAGCACTTTGGATGGGTTA [3d1854] | 0.712
TATCATTGCGTAAGACACTTTGGATGGGTTG [3d1171] | 0.815
TATATTGCGTAAGACACTTTGGATGGGTTGA [3d760] | 0.355
TATCACTTGTCTAAGACACTTGGTGGGTTGA [3d1880] | 0.113
TATCATTGTGTAAGACACTTGGATGGGTTGA [3d1180] | 0.799
TATCACTTTCGTAAGAACTTGGATGGGTTGA [3d1540] | 0.829
TATCCTTGTCGTAAGCACTTTGGATGGGTTG [3d1074] | 0.768
TTCATTGTCGTAGACACTTTGGATGGGTTGA [3d323] | 0.271
TATCACTTGTCGAAACCTTTGGATGGGTTGA [3d1916] | 0.78
TATCACTTTGTAAGACACTTTGGATGGTTGA [3d1476] | 0.119
TATCACTTGTCGTAAGCACTTTGGATGGGTTG [2d253] | 0.771
ATCACTTGTCGTAAGACACTTTGGATGGGTTA [2d23] | 0.747
ATCACTTGTCTAAACACTTTGGATGGGTTGA [3d173] | 0.77
TATCACTTGTCGTAGAACTTTGGTGGGTTGA [3d2016] | 0.138

Sequence | fraction ligated
TACACTTGCGTAAGACACTTTGGAGGGTTGA [3d613] | 0.044
TATCACTTGTCGTGACACTTTGGATGGGTTA [3d1991] | 0.703
ATCACTTGTCGTAAGACACTTTGATGGTTGA [3d263] | 0.0782
ATCACTTGTCGTAAGACATTGGATGGGTTGA [3d246] | 0.739
TATCACTTTCGTAAGACACTTTGGGGGTTGA [3d1574] | 0.0345
TATCACTTGTCGTAAGACCTTTGATGGTTGA [3d2193] | 0.0397
TATACTGTCGTAAGCACTTTGGATGGGTTGA [3d785] | 0.759
TATCACTTGTTAAGCACTTTGGATGGGTTGA [3d1707] | 0.797
TATCACTTGTCGTAAGAACTTGATGGGTTGA [3d2160] | 0.788
TATACTTGTCGTAAACACTTTGGAGGGTTGA [3d889] | 0.0111
TACACTTGTCTAAGACACTTTGGATGGGTTA [3d644] | 0.131
TATCATTGTCGAAGACACTTTGGATGGGTTG [3d1213] | 0.796
ATCACTTGCTAAGACACTTTGGATGGGTTGA [3d141] | 0.763
TTCACTTGTCGTAAGACATTTGGATGGTTGA [3d481] | 0.25
TTCACTTGTCTAAGACACTTTGGATGGGTTA [3d414] | 0.344
TACACTTGTCGTAGACACTTTGGATGGTTGA [3d669] | 0.524
TATCACTGTCGTAAGACACTTGGATGGTTGA [3d1444] | 0.382
TATCACTTGTCGTAAGACACGGATGGGTTGA [3d2231] | 0.231
TTCACTTGCGTAAGACACTTTGGATGGGTTA [3d385] | 0.0657
TATCCTTGTCGTAAGACATTTGGATGGTTGA [3d1094] | 0.0378
ATCACTTTCGAAGACACTTTGGATGGGTTGA [3d126] | 0.698
TACCTTGTCTAAGACACTTTGGATGGGTTGA [3d532] | 0.685
TATCCTTGTCTAAGACACTTTGGATGGGTTG [3d1028] | 0.773

Sequence | fraction ligated
TATCACTTTGTAGACACTTTGGATGGGTTGA [3d1466] | 0.843
TATCACTGTCGTAAACACTTTGATGGGTTGA [3d1402] | 0.669
TTCACTTGTCGAAGACACTTGGATGGGTTGA [3d422] | 0.5
TCACTGTCGTAAGACACTTTGGATGGGTTGA [3d5] | 0.621
TATCACTTGCGTAAGCACTTTGGATGGTTGA [3d1656] | 0.705
TATCACTTGTCGTAAAACTTGGATGGGTTGA [3d2060] | 0.782
TATACTTTCGTAAGACACTTTGGTGGGTTGA [3d807] | 0.00703
ACATTGTCGTAAGACACTTTGGATGGGTTGA [3d26] | 0.0699
TACACTTGCGTAAGACACTTGGATGGGTTGA [3d610] | 0.0197
TATCACTTTCGTAAGACATTGGATGGGTTGA [3d1554] | 0.791
TATCACTTGCGTAAGACACTTTGGAGGGTTG [3d1700] | 0.0669
TACACTTGTCGTAAGCACTTTGGATGGGTTA [3d690] | 0.0198
TATCACTTGTCGTAAGACATTGGATGGGTTGA [2d269] | 0.815
TATCCTGTCGTAAGACACTTTGGATGGTTGA [3d965] | 0.038
TATCACTGTCGTAAAACTTTGGATGGGTTGA [3d1398] | 0.842
TATCACTTGTCGTAAACACTTTGATGGGTTA [3d2092] | 0.0833
TATCACTTGTCGTAAGACACTTGAGGGTTGA [3d2240] | 0.00563
ATCACTTGTCGTAAGACACTTGATGGGTTGA [3d254] | 0.164
TATCACTTGTCTAGCACTTTGGATGGGTTGA [3d1825] | 0.754
TATCACTTGTCTAAGCACTTTGGATGGGTTG [3d1855] | 0.75
TATCACTTGTCGTAAGCACTTTGGAGGGTTA [3d2146] | 0.134
TATCACTTGTCGTAAGACATTTGTGGGTTGA [3d2215] | 0.00941
TATACTTGTCGAAGACACTTTGGATGGGTTGA [2d76] | 0.761

Sequence | fraction ligated
TATCACTTGTCTAAGACACTTTGGATGGGTTG [2d207] | 0.825
ACACTTGTCGTAAGACACTTTGGATGGGTTGA [2d2] | 0.725
TATCACTTGTCGTAGACATTTGGAGGGTTGA [3d2031] | 0.0197
TATCACTTGTCGTAAGACACTTTGTGGGTTG [3d2263] | 0.00738
TATCACTTGCGTAAGACACTTTGGTGGGTTG [3d1697] | 0.038
TATCACTTGTCGTAAGACACTTTGTGGGTTGA [2d284] | 0.0141
TATCATTGTCGTAAGACACTTTGGTGGGTTG [3d1285] | 0.247
TATCACTTGTGAAGAACTTTGGATGGGTTGA [3d1721] | 0.851
TATCACTTGCGTAAGACACTTGGATGGGTTA [3d1686] | 0.558
ATCATGTCGTAAGACACTTTGGATGGGTTGA [3d86] | 0.722
TATATTGTCGTAAGACACTTTGATGGGTTGA [3d771] | 0.288
TATCACTTGTCGTAAGACCTTTGGTGGGTTG [3d2199] | 0.0351
TACACTTGTCGTAAGACCTTGGATGGGTTGA [3d700] | 0.222
TATCCTTGTCGAAGACACTTTGGAGGGTTGA [3d1038] | 0.016
TATCACTTGCGAAGACATTTGGATGGGTTGA [3d1618] | 0.814
TATCACTTGTCGTAAGACCTTGGATGGTTGA [3d2187] | 0.127
ATCACTTGTCGTAAACACTTTGGATGGGTTA [3d219] | 0.54
TATCACTGCGTAAGACACTTTGGATGGTTGA [3d1340] | 0.15
TACACTTGTCGTAAACACTTTGGATGGGTTGA [2d57] | 0.0886
TATCCTTGTCTAAGACACTTTGATGGGTTGA [3d1023] | 0.748
TATCCTTGCGTAAGACACTTTGGATGGGTTGA [2d92] | 0.803
TTCACTTGTGTAAACACTTTGGATGGGTTGA [3d390] | 0.793
TATCACTGTCGTAAGACACTTTGGATGGGTTGA [1d7] | 0.806

Sequence | fraction ligated
ATCACTTGTCGTAAACACTTGGATGGGTTGA [3d214] | 0.742
TATCACTTGCGTAAGACACTTTGGTGGGTTA [3d1696] | 0.0753
TATCACTTTCTAAGACACTTTGGTGGGTTGA [3d1488] | 0.101
TACACTTGTCGTAAGACACTTTGGTGGGTTA [3d729] | 0.00637
ATACTTGTCGTAAGACACTTTGATGGGTTGA [3d61] | 0.291
TATCACTTTCGTAAGAACTTTGATGGGTTGA [3d1541] | 0.829
TATCACTTGTCGAAGAACTTTGGATGGGTTG [3d1942] | 0.798
TATCACTTGTCGAAGAACTTTGGAGGGTTGA [3d1939] | 0.111
TACACTGTCGTAAGCACTTTGGATGGGTTGA [3d574] | 0.463
TATCATTGTCGTAAGACACTTGATGGGTTGA [3d1270] | 0.779
TATCATGTCGTAAGACCTTTGGATGGGTTGA [3d1131] | 0.778
TATACTTGTCGTAAGCACTTTGATGGGTTGA [3d897] | 0.703
TTCACTGTCGTAAGACACTTTGGATGGGTTA [3d353] | 0.195
TATCACTTGTGTAAGCACTTTGGATGGGTTA [3d1762] | 0.831
TATCACGTCGTAAGACACTTTGATGGGTTGA [3d1305] | 0.777
TACACTTTCGTAAGACACTTTGGAGGGTTGA [3d597] | 0.0439
TATCATTGTCGTAAGACACTTTGGATGGTTGA [2d125] | 0.456
TTCACTTGCGTAAGACCTTTGGATGGGTTGA [3d378] | 0.311
TATCACTTTCGTAAGACACTTTGGAGGGTTG [3d1580] | 0.0276
TATCCTGTGTAAGACACTTTGGATGGGTTGA [3d952] | 0.791
